Here are results for five molecules from patent US12162918B2, “Periostin compounds for the treatment of haematological complications” (Chemotherapeutisches Forschungsinstitut Georg-Speyer-Haus, priority 2018, dated 2024).

“Also recorded” adds a separate entry of the source.

Data set [1] concerns Lin− cells. The data set is described as follows: Plating of warfarin-exposed Lin− cells on untreated versus warfarin-treated stroma, with or without MK-2206. The data set is classed as cell-based, mice. The conditions noted are these: MK-2206 5 μM added to cocultures, P=0.02.
For data set [2], the target named is T1, integrin β3 (Mus musculus, UniProt O54890+P43406).
T1 construct: endogenous in cells; host or cells: murine Lin− bone marrow cells cocultured on murine BM stroma cells
The data set is described as follows: Inhibition of integrin β3 by cilengitide, pAKT in Lin− cells cocultured on BM stroma. The data set is classed as cell-based, mice. The note with it: cilengitide 0.05 μM, coculture on BM stroma cells, P=0.03. Here is the method:
(§1) Concentrations of drugs for in vitro use were 2 μM for warfarin, 2 μg/ml for periostin, 5 μM for the AKT inhibitor MK-2206 (Selleck Chemicals, Houston, TX) and cilengitide (Selleck Chemicals, Houston, TX, Cat. No. #S7077) was used at 0.05 μM. Phosphate buffered saline served as the vehicle control.
The PE-labelled anti-pAKT antibody (Cell signaling, #5315, Danvers, MA) was used for intracellular flow cytometry after fixation and permeabilization of the cells.

Data set [3] deals with patients. Put plainly: Peripheral blood counts of patients on VKA versus control patients. Type of data set: in vivo, human. The source says: For FIGS. 6C-6H: Data of patients on VKA were obtained from the French health care databases. Patients with hematological disease, inflammation or sepsis were excluded. Patients admitted to the hospital for dermatological problems without hematological disease or sepsis acted as controls.

In data set [4] the test system is HSC. Put plainly: Competitive transplantation of bone marrow from periostin- or vitamin K-treated donor mice. The conditions noted are these: for percentage of LKS cells, cell cycle of transplanted LKS cells, number of colonies in methylcellulose: previously treated bone marrow cells compared to vehicle. The data set is classed as in vivo. The procedure:
(§2) 5-fluorouracil was intraperitoneally injected every week at a dose of 75 mg/kg for a total of 4 doses or as a one time dose of 200 mg/kg. Recombinant mouse periostin (R&D Systems, Minneapolis, MN, cat. no. 2955-F2), produced in the Sf21 (baculovirus)-derived insect cell line, was administered intravenously at a dose of 2-4 μg per day and vitamin K was given at a dose of 15 mg/kg by oral gavage for four consecutive days.
SJL (CD45.1) donor mice were treated with vehicle or warfarin, euthanized and long bones were flushed, followed by RBC lysis (Life Technologies, Darmstadt, Germany). For competitive transplantation 2×10^6 total BM cells from SJL mice were co-transplanted with 1×10^6 CD45.2+ BM competitor cells into lethally irradiated (900 cGy) C57BL/6N (CD45.2+) recipient mice. For serial transplantation 2×10^6 total CD45.1+ BM cells were transplanted into lethally irradiated C57BL/6N recipient mice. Cell engraftment and chimerism were assessed by flow cytometry of peripheral blood leukocytes for CD45.1 and CD45.2 after 4, 8, 12 and 16 weeks post transplantation. In the limiting dilution experiment we treated primary CD45.1+ donor mice with vehicle or warfarin for 14 days and, consequently, transplanted 5×10^5, 12.5×10^4, 6×10^4 and 1.5×10^4 pooled BM cells into 5 CD45.2+ recipients per group adding 5×10^5 CD45.2+ supporter cells. In indicated experiments we transplanted 5,000 or 10,000 sorted CD45.1+ LKS cells from mice treated with vehicle or warfarin plus 1×10^6 CD45.2+ total BM supporter cells into CD45.2+ recipient mice.

The subject of data set [5] is wildtype mice. The data set is described as follows: Complete blood count and flow cytometry of peripheral blood and bone marrow of treated mice. Type of data set: in vivo. The note with it: administration of vitamin K1, P=0.04. Here is the method: (§3) 0.5 mg/kg/d or 0.05 mg/kg/d of warfarin, resuspended in phosphate-buffered saline was administered to mice via subcutaneously implanted osmotic minipumps (ALZET minipumps, Cupertino, CA). The osmotic minipumps were changed after 14 days (if the experiment went beyond 14 days of treatment). Sham operated (skin incision and suture) mice served as controls. Warfarin treatment continued for 10-14 days. In the xenotransplantation experiments the mice were treated with warfarin via the drinking water (or normal drinking water) at a dose of 0.72 mg/100 ml for a total of 3 days a week (Pfeilschifter et al., 2011).
as §2
We assessed the complete blood count of vehicle or warfarin-treated mice using a complete blood count analyzer (Scil Vet ABC, Gurnee, IL). Peripheral blood and bone marrow samples were stained with antibodies for flow cytometry, which was performed on a BD LSR Fortessa (BD Biosciences, Heidelberg, Germany). The lineage antibody cocktail contained antibodies to B220, CD5, Ter119, F4/80 and CD11b. Engraftment of human cells in NSG mice was assessed using anti-human CD45 (BD Biosciences, San José, CA).

The test system of data set [6] is hematopoietic cells from murine bone marrow. Put plainly: In vitro rescue experiment with periostin in stroma/Lin− cocultures. The data set is classed as cell-based. The conditions noted are these: for absolute number of hematopoietic cells in coculture: 2 μg/ml periostin added, warfarin-treated stroma, 5 days, P=0.02. Here is the method: as §1
To test the direct effect of warfarin on hematopoietic cells 100,000 Lin− cells were cultured in 2 μM vehicle or warfarin in the absence of stroma cells for a total of 7 days. For the in vitro rescue experiment with periostin stroma cells were grown in warfarin for 14 days, before vehicle or periostin were added.

Data set [7] deals with LKS cells and myeloid cells. The data set is described as follows: In vivo administration of periostin to mice treated with warfarin. Here is the method:
as §3, §2
For cell cycle analysis cells were permeabilized and fixed with the cytoperm/cytofix kit (BD Biosciences, San Jose, CA), followed by staining with an antibody to Ki67-PE (Biolegend, San Diego, CA) overnight at 4 C. Consequently, cells were washed and resuspended in PBS with DAPI (1 ng/ml). For detection of apoptosis cells were first stained for surface markers, washed with Annexin V buffer (Life Technologies, Darmstadt, Germany), stained with Annexin V-PE (Life Technologies, Darmstadt, Germany), washed with Annexin V binding buffer, resuspended in PBS with DAPI and analyzed.

The test system of data set [8] is Lin− cells. The data set is described as follows: Adhesion assay of Lin− cells to stroma cells. The conditions noted are these: periostin added, warfarin- and more prominently vehicle-treated conditions, P=0.03. Type of data set: cell-based, mice.
From the text: In vivo administration of periostin to mice treated with warfarin also ‘rescued’ the number of LKS cells positive for integrin β3, whose binding to its ligand periostin (Gillan et al., 2002) is known to mediate HSC support (P=0.0013; FIG. 5A) (Khurana and Verfaillie, 2013). […] In order to test, whether the periostin/integrin β3-axis mediates the adhesion of HSPC to stroma, the inventors performed an adhesion assay plating untreated Lin− cells on vehicle- or warfarin-treated stroma cells in the presence or absence of periostin. […] Due to the role of pAKT, which lies downstream of integrin β3 (Hynes, 2002), in periostin-mediated cell survival (Bao et al., 2004) the inventors tested the effect of inhibition of integrin β3 by cilengitide on pAKT in Lin− cells after coculture on BM stroma cells. Similar to the reduction of pAKT+ Lin− cells in mice treated with warfarin (FIG. 3A), inhibition of integrin β3 led to a decrease of pAKT in Lin− cells (P=0.03).
as §1

T1 sequence (O54890 26-787): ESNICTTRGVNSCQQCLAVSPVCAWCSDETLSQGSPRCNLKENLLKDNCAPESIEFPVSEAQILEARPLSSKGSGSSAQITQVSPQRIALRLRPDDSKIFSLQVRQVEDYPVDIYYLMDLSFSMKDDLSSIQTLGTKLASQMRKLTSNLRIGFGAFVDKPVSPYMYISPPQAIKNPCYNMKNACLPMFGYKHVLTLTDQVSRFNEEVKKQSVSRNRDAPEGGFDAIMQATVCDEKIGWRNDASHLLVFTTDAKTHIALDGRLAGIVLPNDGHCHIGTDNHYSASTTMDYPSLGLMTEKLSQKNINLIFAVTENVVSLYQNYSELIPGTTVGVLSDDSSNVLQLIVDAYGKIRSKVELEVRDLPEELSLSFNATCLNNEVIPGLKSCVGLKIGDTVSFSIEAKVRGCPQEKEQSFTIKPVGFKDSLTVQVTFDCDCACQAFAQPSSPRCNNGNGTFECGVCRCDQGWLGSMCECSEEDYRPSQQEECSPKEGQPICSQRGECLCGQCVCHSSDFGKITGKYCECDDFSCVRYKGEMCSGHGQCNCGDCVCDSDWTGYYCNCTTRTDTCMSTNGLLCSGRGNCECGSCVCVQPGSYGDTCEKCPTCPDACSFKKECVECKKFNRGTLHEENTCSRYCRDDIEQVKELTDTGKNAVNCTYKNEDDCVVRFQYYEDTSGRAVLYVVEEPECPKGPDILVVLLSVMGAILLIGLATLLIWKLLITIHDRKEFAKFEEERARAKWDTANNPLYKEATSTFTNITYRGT
T1 sequence (P43406 31-885 limits assumed): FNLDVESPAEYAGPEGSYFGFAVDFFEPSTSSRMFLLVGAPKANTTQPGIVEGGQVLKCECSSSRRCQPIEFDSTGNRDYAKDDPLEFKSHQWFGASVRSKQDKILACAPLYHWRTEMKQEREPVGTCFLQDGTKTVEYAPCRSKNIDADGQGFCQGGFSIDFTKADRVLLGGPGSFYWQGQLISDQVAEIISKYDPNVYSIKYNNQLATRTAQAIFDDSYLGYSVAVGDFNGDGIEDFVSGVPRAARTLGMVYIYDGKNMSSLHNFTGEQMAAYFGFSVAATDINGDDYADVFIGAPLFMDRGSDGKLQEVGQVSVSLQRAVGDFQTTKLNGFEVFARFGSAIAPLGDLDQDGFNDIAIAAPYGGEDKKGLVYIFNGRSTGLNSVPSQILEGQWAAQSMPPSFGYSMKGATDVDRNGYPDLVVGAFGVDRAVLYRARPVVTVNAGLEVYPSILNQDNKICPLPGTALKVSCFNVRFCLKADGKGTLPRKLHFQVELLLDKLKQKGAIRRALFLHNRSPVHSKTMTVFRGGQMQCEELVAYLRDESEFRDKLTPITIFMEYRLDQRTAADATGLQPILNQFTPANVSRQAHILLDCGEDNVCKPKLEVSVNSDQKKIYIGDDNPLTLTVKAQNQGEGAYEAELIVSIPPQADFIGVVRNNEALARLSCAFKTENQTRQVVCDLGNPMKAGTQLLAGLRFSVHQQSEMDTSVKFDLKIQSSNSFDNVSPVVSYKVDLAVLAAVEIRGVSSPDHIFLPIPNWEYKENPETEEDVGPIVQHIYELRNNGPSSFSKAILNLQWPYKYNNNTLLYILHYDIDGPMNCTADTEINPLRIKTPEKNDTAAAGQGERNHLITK
T1 sequence (P43406 887-1044 partner limits assumed): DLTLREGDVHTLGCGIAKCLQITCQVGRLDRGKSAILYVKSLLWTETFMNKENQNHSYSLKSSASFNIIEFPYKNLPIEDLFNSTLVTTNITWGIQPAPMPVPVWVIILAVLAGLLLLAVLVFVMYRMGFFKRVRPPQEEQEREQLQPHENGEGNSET

For `NC1(c2ccc(-c3nc4ccn5c(=O)[nH]nc5c4cc3-c3ccccc3)cc2)CCC1` [MK-2206], in data set [1], the “temporary recovery of warfarin-exposed Lin− cells on untreated stroma” value is “prevented”.

For the molecule `CC(C)[C@H]1C(=O)N[C@@H](CCCN=C(N)N)C(=O)NCC(=O)N[C@@H](CC(=O)O)C(=O)N[C@H](Cc2ccccc2)C(=O)N1C` [cilengitide], the “pAKT in Lin− cells” value in data set [2] is listed as “decrease”.

Take `O=C1c2ccccc2C(=O)C1c1ccc(F)cc1` [fluindione]: the “absolute number of leukocytes” value in data set [3] (282 patients on warfarin (P=0.0007) or 89 on fluindione (P=0.029) vs 145 control patients) was “reduced”. Further, the “absolute number of monocytes” value in data set [3] (282 patients on warfarin (P=0.004) or 89 on fluindione (P=0.046) vs 145 control patients) was “reduced”. For the same molecule, the platelets entry in data set [3] (warfarin- or fluindione-treated patients) is “not reduced”.

For the molecule `CC1=C(C/C=C(\C)CCC[C@H](C)CCC[C@H](C)CCCC(C)C)C(=O)c2ccccc2C1=O` [vitamin K1], the “percentage of LKS cells, cell cycle of transplanted LKS cells, number of colonies in methylcellulose” value in data set [4] is reported as “did not lead to an increase”. For the same molecule, the “engraftment of donor cells” value in data set [4] (treatment of donor mice with vitamin K prior to competitive transplantation) was “did not lead to increased engraftment”. Besides, the “decreased percentage of myeloid cells in previously warfarin-treated mice” value in data set [5] was “rescued”.

B1: periostin: Recombinant mouse periostin (R&D Systems, cat. no. 2955-F2), produced in the Sf21 (baculovirus)-derived insect cell line (protein)
chain: NSYYDKVLAHSRIRGRDQGPNVCALQQILGTKKKYFSSCKNWYQGAICGKKTTVLYECCPGYMRMEGMKGCPAVMPIDHVYGTLGIVGATTTQHYSDVSKLREEIEGKGSYTYFAPSNEAWENLDSDIRRGLENNVNVELLNALHSHMVNKRMLTKDLKHGMVIPSMYNNLGLFINHYPNGVVTVNCARVIHGNQIATNGVVHVIDRVLTQIGTSIQDFLEAEDDLSSFRAAAITSDLLESLGRDGHFTLFAPTNEAFEKLPRGVLERIMGDKVASEALMKYHILNTLQCSEAITGGAVFETMEGNTIEIGCEGDSISINGIKMVNKKDIVTKNGVIHLIDEVLIPDSAKQVIELAGKQQTTFTDLVAQLGLASSLKPDGEYTLLAPVNNAFSDDTLSMDQRLLKLILQNHILKVKVGLSDLYNGQILETIGGKQLRVFVYRTAICIENSCMVRGSKQGRNGAIHIFREIIQPAEKSLHDKLRQDKRFSIFLSLLEAADLKDLLTQPGDWTLFAPTNDAFKGMTSEERELLIGDKNALQNIILYHLTPGVYIGKGFEPGVTNILKTTQGSKIYLKGVNETLLVNELKSKESDIMTTNGVIHVVDKLLYPADIPVGNDQLLELLNKLIKYIQIKFVRGSTFKEIPMTVYRPAMTKIQIEGDPDFRLIKEGETVTEVIHGEPVIKKYTKIIDGVPVEITEKQTREERIITGPEIKYTRISTGGGETGETLQKFLQKEVSKVTKFIEGGDGHLFEDEEIKRLLQGDTPAKKIPANKRVQGPRRRSREGRSQ
With B1, the “engraftment of CD45.1+ bone marrow (ratio CD45.1/CD45.2)” value in data set [4] (donor treated for four days, four weeks after transplantation, P=0.02) is “increased engraftment”. Moreover, in data set [4] (later time points (data not shown)), the “engraftment of CD45.1+ bone marrow” value is recorded as “not at later time points”. In addition, in data set [4], the “percentage of LKS cells, cell cycle of transplanted LKS cells, number of colonies in methylcellulose” value was “did not lead to an increase”. In addition, the figures for the “absolute number of hematopoietic cells in coculture” value in data set [6] and in data set [6] (listed as recombinant periostin) were “increase of the number of hematopoietic cells” and “restored”, respectively. In data set [6] (periostin added, P=0.056), the “percentage of LKS cells in warfarin-treated cultures” value is recorded as “strong trend towards restoration”. In addition, in data set [7] (periostin and warfarin (or vehicle) vs warfarin (or vehicle) alone, P=0.02), the “annexin V+ apoptotic LKS cells” value is on record as “significantly reduced”. The “median fluorescence intensity of integrin β3 on LKS cells” value in data set [7] (periostin to warfarin-treated mice) is “remained unchanged”. In addition, in data set [7] (periostin to warfarin-treated mice, 4 day treatment, P=0.007), the “percentage of myeloid cells in peripheral blood” value is reported as “rescued; also recorded: increase of the percentage of myeloid cells”. The “number of LKS cells positive for integrin β3” value in data set [7] (periostin to warfarin-treated mice, P=0.0013) is given as “rescued”. Moreover, the “adhesion of Lin− cells to stroma” value in data set [8] is reported as “restored or augmented”.
